From article PMC9122594
Where two headings read alike, the source gives them in different places.

T1: MbpAgo WT (Mucilaginibacter paludis, UniProt H1YCU5 1-795)
T1 sequence: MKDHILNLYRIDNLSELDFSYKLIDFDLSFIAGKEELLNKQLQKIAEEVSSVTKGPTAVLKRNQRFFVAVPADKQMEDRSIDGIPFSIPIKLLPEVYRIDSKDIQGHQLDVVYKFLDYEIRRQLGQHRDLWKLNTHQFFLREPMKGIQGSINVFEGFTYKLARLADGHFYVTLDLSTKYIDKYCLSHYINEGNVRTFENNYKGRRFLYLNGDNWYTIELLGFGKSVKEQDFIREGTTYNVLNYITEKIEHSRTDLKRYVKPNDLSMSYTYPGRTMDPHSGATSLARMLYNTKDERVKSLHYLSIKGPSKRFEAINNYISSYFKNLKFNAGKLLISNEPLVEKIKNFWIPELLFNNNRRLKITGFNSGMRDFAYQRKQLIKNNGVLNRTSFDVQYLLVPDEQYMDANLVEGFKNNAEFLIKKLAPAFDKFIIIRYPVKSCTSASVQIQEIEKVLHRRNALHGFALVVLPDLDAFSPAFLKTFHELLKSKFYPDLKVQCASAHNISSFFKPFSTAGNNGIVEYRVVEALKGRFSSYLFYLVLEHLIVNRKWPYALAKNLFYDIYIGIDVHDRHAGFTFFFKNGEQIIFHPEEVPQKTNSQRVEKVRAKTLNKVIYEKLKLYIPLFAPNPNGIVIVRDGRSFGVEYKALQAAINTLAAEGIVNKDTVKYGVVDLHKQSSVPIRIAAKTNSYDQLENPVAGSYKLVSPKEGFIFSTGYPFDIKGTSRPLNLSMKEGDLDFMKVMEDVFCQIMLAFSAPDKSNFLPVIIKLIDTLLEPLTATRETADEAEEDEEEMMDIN


What was measured:
MbpAgo WT [1] = biological target: T1, MbpAgo WT; assay: EMSA
MbpAgo WT [2] = biological target: T1, MbpAgo WT; assay: EMSA; remark: listed apart in the source

Binder | Kd (MbpAgo WT [1]) [nM] | Kd (MbpAgo WT [2]) [nM]
TGAGGTAGTAGGTTGT (ssDNA, 5' phosphate) [T-gDNA iFAM, 5'P] | 111 ± 3 | 205 ± 7.6
TGAGGTAGTAGGTTGT (ssDNA) [T-gDNA iFAM, 5'OH] | 148 ± 5.8 | 162 ± 4.8
